One may read the Kd as a measure of binding affinity in units of concentration. In general, koff refers to a measure of how fast the partners let go of each other. A higher koff goes with fast dissociation. By kon is commonly meant the rate constant with which the complex forms. By EC50 is commonly meant the concentration giving half of the maximal effect. Low values mean an effect from little substance, high ones a need for much substance.

Assay [1] addresses T1, CTLA-4 N113Q mutant expressed in 293T cells (human, UniProt P16410 36-223).
T1 construct: Flag-tagged; single-glycosylated (only N145 can carry a glycan); Tested by Western blot
The assay can be described thus: blot under native condition of 293T cells expressing flag-tagged CTLA-4.

The target in assay [2] is T2, CTLA-4 N145Q mutant expressed in 293T cells (human, UniProt P16410 36-223).
T2 construct: Flag-tagged; single-glycosylated (only N113 can carry a glycan); Tested by Western blot
The assay is described as above.

In assay [3] the target is T3, CTLA-4 2NQ (non-glycosylated form) expressed in 293T cells (human, UniProt P16410 36-223).
T3 construct: also called CTLA-4 2NQ mutant; unglycosylated CTLA-4
The description is as above.

Assay [4] has as its target T4, CTLA-4-His (human, UniProt P16410 36-161, limits assumed, N-linked glycosylation at N113 and N145 (heavily glycosylated)).
T4 construct: also called antigen CTLA-4-His; not shown: His tag
T4 sequence: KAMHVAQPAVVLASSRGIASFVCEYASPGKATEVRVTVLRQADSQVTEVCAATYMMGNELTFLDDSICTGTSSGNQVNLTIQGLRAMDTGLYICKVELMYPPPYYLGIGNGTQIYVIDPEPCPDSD
The assay is described as follows: Biacore X100 SPR, antibody captured on CM5 chip, six concentrations of CTLA4, 1:1 fit. As for the experimental part: KD determination was performed via surface plasmon resonance using a Biacore X100 instrument (GE Healthcare, Uppsala, Sweden). […] was immobilized on a research-grade CM5 chip using standard procedures, and antibody was flowed over the chip at 2 μg/mL in HBS-EP⁺ buffer. Next, six concentrations of CTLA4, each a 2-fold dilution, were passed over the chip. Sensorgram data were analyzed by Biacore X100 evaluation software version 2.0.1 with 1:1 binding kinetics.

The target of assay [5] is T4, CTLA-4-His. The assay can be described thus: Octet BLI, antibody loaded on sensor, 1:1 fit. As for the experimental part:
KD determination and binning by Octet. […] Baseline was established in PBS containing 1 mg/ml bovine serum albumin (assay buffer), the association step was performed by submerging the sensors in a single concentration of analyte in assay buffer. Dissociation was performed and monitored in fresh assay buffer. All experiments were performed with sensor shaking at 1,000 rpm. ForteBio's data analysis software was used to fit the data to a 1:1 binding model to extract an association rate and dissociation rate. The KD was calculated using the ratio kd/kₐ. In a typical epitope binning assay, antigen CTLA-4-His (10 nM) was preincubated with the second antibody (10 nM) for 1 h at room temperature. Control antibody (20 nM) was loaded onto AMC sensors (ForteBio) and remaining Fc-binding sites on the sensor were blocked with a whole mouse IgG antibody (Jackson ImmunoResearch). The sensors were exposed to preinculated antigen-second antibody mixture. Raw data was processed using ForteBio's Data Analysis Software 7.0 and the antibody pairs were assessed for competitive binding.
The baseline was established in PBS containing 1 mg/mL bovine serum albumin (assay buffer), and the association step was performed by submerging the sensors in a single concentration of analyte in assay buffer. Dissociation was performed and monitored in fresh assay buffer. All experiments were performed with the sensor shaking at 1,000 rotations per minute. ForteBio (Menlo Park, Calif., USA) data analysis software was used to fit the data to a 1:1 binding model to extract an association rate and dissociation rate. KD was calculated using the ratio kd:ka.
(In general: Biolayer interferometry detects binding as a change in optical thickness at a sensor tip.)

The target of assay [6] is T5, CTLA-4 WT expressed on 293T cells (human, UniProt P16410 36-223, N-linked glycosylation at N113 and N145).
T5 construct: also called wild type CTLA-4; Flag-tagged CTLA-4 WT
T5 sequence: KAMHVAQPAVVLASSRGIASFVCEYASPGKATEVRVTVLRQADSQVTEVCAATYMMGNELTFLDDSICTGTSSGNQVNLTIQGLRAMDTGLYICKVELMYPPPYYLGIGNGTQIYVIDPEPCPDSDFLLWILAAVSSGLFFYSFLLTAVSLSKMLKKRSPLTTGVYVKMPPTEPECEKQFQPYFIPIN
The assay can be described thus: IncuCyte, inhibition of CD86-Fc binding to 293T cells expressing CTLA-4. The protocol:
(§1) The green fluorescent signals were measured every 2 hours and quantified using an IncuCyte Zoom system (Essen BioScience).

In assay [7] the target is T5, CTLA-4 WT expressed on 293T cells. The assay is described as follows: IncuCyte, inhibition of CD86-Fc binding to CTLA-4-expressing cells; human chimera hSTC1807 (FIG. 8B), not the mouse STC1807 of FIG. 7B (2.189 µg/mL). As for the experimental part:
as §1

B1: anti-glycCTLA-4 monoclonal antibody STC1807 (antibody, V domains shown)
VH: EVQLQQSGAELVRPGALVKLSCKASGFNIKDYYMNWVKQRPEQGLEWIGWIDPENGNTIYDPKFQGKASIIADTSSNTAYLQLSSLTSEDTAVYYCARKWSYTMDYWGQGTSVTVSS
VL: QIVLTQSPALMSASPGEKVTMTCSASSFVGYMYWYQQKPRSSPKPWIYLTSNLASGVPGRFSGSGSGTSYSLTISNMEAEDAATYYCQQWSSNPLTFGAGTKLELK
notes: Mouse hybridoma monoclonal antibody (BALB/c), kappa light chain; also called MAb STC1807
In the case of B1, the binding result in assay [1] is reported as “no binding”; in assay [2] it was “binds”; in assay [3], “no binding”. Further, the Kd in assay [4] stood at 0.469 nM; in assay [5], 1.86 nM. Further, the koff came out at 0.000217 s⁻¹ in assay [4] and 0.000499 s⁻¹ in assay [5]. Also, the kon in assay [4] was determined as 463000 M⁻¹ s⁻¹; in assay [5] it was 268000 M⁻¹ s⁻¹. In assay [6], the response was half-maximal at 2.19 µg/mL (EC50).

B2: human chimera of STC1807 (hSTC1807) (antibody, V domains shown)
VH: B1 VH
VL: QIVLTQSPALMSASPGEKVTMTCSASSFVGYMYWYQQKPRSSPKPWIYLTSNLASGVPGRFSGSGSGTSYSLTISNMEAEDAATYYCQQWSSNPLTFGAGTKLELKR
notes: domain: kappa constant region of pFUSEss-CLIg-hK; Mouse constant regions replaced by human ones; also called human chimera STC1807; chimeric antibody (hSTC1807); not shown: human IgG1 constant region (CH1-CH3) from vector pFUSEss-CHIg-hG1 (Invivogen)
Molecule B2 registered an EC50 in assay [7] of 0.331 µg/mL.

For the origin of these results see patent publication US20220411511A1 (STCUBE, published 2022).
